# Data: the supplement of paper PMC9112550, “Optimization of the antimicrobial peptide Bac7 by deep mutational scanning” (BMC Biology, 2022)
# Tested on: Escherichia coli TOP10
# Test: shrunken log2 fold change of peptide-encoding DNA abundance (4.5 h post-induction vs induction); higher = less antimicrobial activity (less host growth inhibition)
# Conditions: time post-induction: 4.5 h; library: site-saturation at positions 5, 18, 19, 20
# 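Note: peptides expressed intracellularly from a pBAD plasmid library in pooled LB shake-flask culture, induced with 0.3% L-arabinose, DNA abundance read by NGS, three biological replicates, DESeq2 with apeglm shrinkage.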
row,Sequence,shrunken log2 fold change
1,RRIRRRPPRLPRPRPRPYCDPRP,-0.0241
2,RRIRKRPPRLPRPRPRPTHNPRP,0.299
3,RRIRQRPPRLPRPRPRPYWAPRP,-0.355
4,RRIRHRPPRLPRPRPRPFWQPRP,0.0187
5,RRIRYRPPRLPRPRPRPELNPRP,-0.395
6,RRIRWRPPRLPRPRPRPTEQPRP,0.357
7,RRIRSRPPRLPRPRPRPMVEPRP,0.884
8,RRIRNRPPRLPRPRPRPAAPPRP,0.331
9,RRIRRRPPRLPRPRPRPECMPRP,0.921
10,RRIRVRPPRLPRPRPRPLFMPRP,-0.663
11,RRIRGRPPRLPRPRPRPHAKPRP,0.126
12,RRIRKRPPRLPRPRPRPPYPPRP,0.0247
13,RRIRNRPPRLPRPRPRPWACPRP,0.0014
14,RRIRMRPPRLPRPRPRPPGIPRP,1.2
15,RRIRYRPPRLPRPRPRPAVKPRP,-0.0154
16,RRIRYRPPRLPRPRPRPLLRPRP,-0.468
17,RRIRDRPPRLPRPRPRPGYLPRP,-0.394
18,RRIRDRPPRLPRPRPRPKGPPRP,-0.0184
19,RRIRYRPPRLPRPRPRPDDNPRP,0.0238
20,RRIRTRPPRLPRPRPRPGCCPRP,0.334
21,RRIRPRPPRLPRPRPRPTHYPRP,0.206
22,RRIRGRPPRLPRPRPRPFRTPRP,-0.0333

row,Sequence,shrunken log2 fold change
1,RRIRCRPPRLPRPRPRPGAGPRP,0.364
2,RRIRFRPPRLPRPRPRPSLFPRP,-0.291
3,RRIRCRPPRLPRPRPRPREPPRP,0.211
4,RRIRLRPPRLPRPRPRPIDPPRP,-0.379
5,RRIRWRPPRLPRPRPRPIVPPRP,0.138
6,RRIRDRPPRLPRPRPRPTLHPRP,0.605
7,RRIRFRPPRLPRPRPRPFDVPRP,-0.247
8,RRIRVRPPRLPRPRPRPQHMPRP,-0.23
9,RRIRNRPPRLPRPRPRPGPIPRP,0.058
10,RRIRPRPPRLPRPRPRPKWGPRP,0.0577
11,RRIRCRPPRLPRPRPRPPSAPRP,0.345
12,RRIRQRPPRLPRPRPRPPDKPRP,-0.116
13,RRIRLRPPRLPRPRPRPRINPRP,-0.0907
14,RRIRRRPPRLPRPRPRPYRPPRP,-0.0416
15,RRIRCRPPRLPRPRPRPWPGPRP,0.123
16,RRIRKRPPRLPRPRPRPRTFPRP,0.243
17,RRIRERPPRLPRPRPRPTNIPRP,-0.905
18,RRIRGRPPRLPRPRPRPIYGPRP,-0.141
19,RRIRRRPPRLPRPRPRPGFNPRP,0.0515
20,RRIRERPPRLPRPRPRPYIWPRP,0.0553
21,RRIRERPPRLPRPRPRPEIWPRP,0.417
22,RRIRWRPPRLPRPRPRPWAPPRP,0.479

row,Sequence,shrunken log2 fold change
1,RRIRFRPPRLPRPRPRPTRGPRP,0.54
2,RRIRARPPRLPRPRPRPALVPRP,0.597
3,RRIRRRPPRLPRPRPRPHTHPRP,-0.11
4,RRIRFRPPRLPRPRPRPKLVPRP,0.147
5,RRIRIRPPRLPRPRPRPHWSPRP,-0.187
6,RRIRDRPPRLPRPRPRPSAQPRP,0.469
7,RRIRLRPPRLPRPRPRPHRWPRP,-0.0172
8,RRIRRRPPRLPRPRPRPARYPRP,0.317
9,RRIRQRPPRLPRPRPRPYGHPRP,-0.473
10,RRIRWRPPRLPRPRPRPTTIPRP,0.127
11,RRIRERPPRLPRPRPRPFNAPRP,-0.328
12,RRIRMRPPRLPRPRPRPFDMPRP,-0.192
13,RRIRLRPPRLPRPRPRPHSKPRP,-0.129
14,RRIRQRPPRLPRPRPRPAKNPRP,-0.0935
15,RRIRKRPPRLPRPRPRPAGPPRP,0.368
16,RRIRARPPRLPRPRPRPYQSPRP,-0.0285
17,RRIRHRPPRLPRPRPRPFGLPRP,-0.0904
18,RRIRLRPPRLPRPRPRPTNAPRP,0.00567
19,RRIRHRPPRLPRPRPRPVVYPRP,-0.186
20,RRIRKRPPRLPRPRPRPGCVPRP,1.16
21,RRIRRRPPRLPRPRPRPQPVPRP,0.299
22,RRIRVRPPRLPRPRPRPSQNPRP,-0.242

row,Sequence,shrunken log2 fold change
1,RRIRNRPPRLPRPRPRPLWNPRP,-0.511
2,RRIRVRPPRLPRPRPRPRANPRP,0.384
3,RRIRGRPPRLPRPRPRPQNLPRP,-0.34
4,RRIRGRPPRLPRPRPRPQESPRP,-0.0432
5,RRIRVRPPRLPRPRPRPPVVPRP,-0.0362
6,RRIRTRPPRLPRPRPRPEPLPRP,0.0272
7,RRIRGRPPRLPRPRPRPDYEPRP,0.19
8,RRIRRRPPRLPRPRPRPLGPPRP,0.304
9,RRIRRRPPRLPRPRPRPAHGPRP,0.279
10,RRIRIRPPRLPRPRPRPLSQPRP,-0.111
11,RRIRERPPRLPRPRPRPLLGPRP,-0.144
12,RRIRARPPRLPRPRPRPSKPPRP,-0.281
13,RRIRWRPPRLPRPRPRPIHTPRP,-0.275
14,RRIRSRPPRLPRPRPRPSQKPRP,-0.158
15,RRIRFRPPRLPRPRPRPNMNPRP,-0.953
16,RRIRGRPPRLPRPRPRPIRWPRP,0.577
17,RRIRERPPRLPRPRPRPRNLPRP,-0.514
18,RRIRARPPRLPRPRPRPPHSPRP,0.902
19,RRIRPRPPRLPRPRPRPWPDPRP,-0.149
20,RRIRSRPPRLPRPRPRPEPFPRP,0.621
21,RRIRARPPRLPRPRPRPNHQPRP,0.243
22,RRIRVRPPRLPRPRPRPVLPPRP,0.0268

row,Sequence,shrunken log2 fold change
1,RRIRIRPPRLPRPRPRPAHRPRP,-0.133
2,RRIRPRPPRLPRPRPRPNYYPRP,-0.468
3,RRIRWRPPRLPRPRPRPISAPRP,-0.0163
4,RRIRGRPPRLPRPRPRPPLHPRP,0.501
5,RRIRQRPPRLPRPRPRPVTSPRP,-0.0277
6,RRIRSRPPRLPRPRPRPVSWPRP,0.437
7,RRIRIRPPRLPRPRPRPQYNPRP,-1.12
8,RRIRPRPPRLPRPRPRPFRPPRP,-0.0197
9,RRIRERPPRLPRPRPRPRIMPRP,-0.712
10,RRIRYRPPRLPRPRPRPAYKPRP,-0.14
11,RRIRSRPPRLPRPRPRPWRVPRP,0.108
12,RRIRVRPPRLPRPRPRPVWCPRP,0.423
13,RRIRKRPPRLPRPRPRPMRHPRP,0.0303
14,RRIRNRPPRLPRPRPRPEIYPRP,-0.00989
15,RRIRTRPPRLPRPRPRPQCNPRP,-0.0399
16,RRIRVRPPRLPRPRPRPWPYPRP,-0.197
17,RRIRLRPPRLPRPRPRPAVPPRP,0.3
18,RRIRRRPPRLPRPRPRPVVLPRP,-0.0732
19,RRIRDRPPRLPRPRPRPYQMPRP,-0.796
20,RRIRARPPRLPRPRPRPCWPPRP,0.162
21,RRIRSRPPRLPRPRPRPFKVPRP,-0.0212
